Laboratory results taken from patent US20210380703A1 (RIGEL PHARMACEUTICALS, published 2021).
Substitutions are numbered along the chain they refer to.

How the values were obtained:
[1] = target: T1, human ACVR2A (human, UniProt P27037 20-135, limits assumed); experiment: ELISA
T1 construct: also called activin receptor, type II A
Summary of the method: (§1)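 Binding signal was read by ELISA after ACVR2A-specific monoclonal antibodies were tested against human ACVR2A and mouse ACVR2A, with human Fc as the negative control.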

[2] = target: mouse ACVR2A (mouse, UniProt P27038 20-135, limits assumed); experiment: ELISA
Sequence of mouse ACVR2A (P27038 20-135 limits assumed): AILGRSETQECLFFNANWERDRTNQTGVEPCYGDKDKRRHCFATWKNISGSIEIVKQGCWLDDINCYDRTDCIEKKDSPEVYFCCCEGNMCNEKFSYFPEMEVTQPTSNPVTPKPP
Summary of the method: as §1

[3] = target: T2, biotinylated goat anti-human kappa light chain; experiment: ELISA, positive control
T2 construct: Positive control of the ELISA
Summary of the method: as §1
Also: test concentration or dose not given here.

T1 sequence (P27037 20-135 limits assumed): as the sequence (P27038 20-135 limits assumed) above, with R20K, I73V counted along it

B1: 369_C08 (antibody, V domains shown)
VH: EVQLLESGGGLVQPGGSLRLSCAASGFTFSDYGMNWVRQAPGKGLEWVSNINYNGGYTGYADSVKGRFTISRDNSKNTLYLQMNSLRAEDTAVYYCARSATWHDTHLDYWGQGTLVTVSS
VL: DIQMTQSPSSLSASVGDRVTITCRASQSILTYLNWYQQKPGKAPKLVIYAATSLASGVPSRFSGSGSGTDFTLTISSLQPEDFATYYCQQSYENPLTFGGGTKVEIK
notes: VH and VL only
Binder B1 has an optical density [1] of 2.32 OD, an optical density [2] of 2.33 OD and an optical density [3] of 2.8 OD.

B2: 372_H03 (antibody, V domains shown)
VH: B1 VH with S30D, D31S, T58K, G59S
VL: B1 VL with L30I, L33V, V47L, E93N, N94L
notes: VH and VL only
Work on B2 yielded an optical density [1] of 2.32 OD, an optical density [2] of 2.7 OD and an optical density [3] of 3.64 OD.

B3: 370_D07 (antibody, V domains shown)
VH: B1 VH with D31S, G55S
VL: B1 VL with T31S, L33V, N94S
notes: VH and VL only
With B3 the optical density [1] was 2.81 OD, the optical density [2] was 3.14 OD and the optical density [3] was 3.38 OD.

B4: 369_E04 (antibody, V domains shown)
VH: B1 VH with G33S, N50G, G55S, T58K, G59S
VL: B1 VL with T31S, L33V, L54R, E93S, N94L
notes: VH and VL only
B4 showed an optical density [1] of 2.88 OD, an optical density [2] of 3.3 OD and an optical density [3] of 3.52 OD.

B5: 370_A10 (antibody, V domains shown)
VH: B1 VH with G33S, N50S, G55S, T58K
VL: B1 VL with T31S, L33V, V47L, E93D, N94T
notes: VH and VL only
B5 gave an optical density [1] of 2.58 OD, an optical density [2] of 2.88 OD and an optical density [3] of 3.47 OD.

B6: 369_E09 (antibody, V domains shown)
VH: B1 VH with S30D, D31S, G33S, G55S, T58K
VL: B1 VL with T31S, L54R, E93D, N94L
notes: VH and VL only
Work on B6 yielded an optical density [1] of 3.63 OD, an optical density [2] of 3.77 OD and an optical density [3] of 3.48 OD.

B7: 369_D06 (antibody, V domains shown)
VH: B1 VH with S30D, D31S, G33S, N50G
VL: B1 VL with V47L, L54R, N94T
notes: VH and VL only
B7 gave an optical density [1] of 3.44 OD, an optical density [2] of 3.35 OD and an optical density [3] of 3.11 OD.

B8: 370_A08 (antibody, V domains shown)
VH: B1 VH with S30D, D31S, G33S, N50S, G55S
VL: B1 VL with L30V, L54R, E93D, N94L
notes: VH and VL only
Work on B8 yielded an optical density [1] of 2.41 OD, an optical density [2] of 2.33 OD and an optical density [3] of 3.52 OD.

B9: 371_F12 (antibody, V domains shown)
VH: B1 VH with S30D, D31S, G33S, T58K, G59S
VL: B1 VL with L30I, T31S, V47L, L54R, Y92N, E93N, N94L
notes: VH and VL only
Work on B9 yielded an optical density [1] of 2.47 OD, an optical density [2] of 2.3 OD and an optical density [3] of 3.62 OD.

B10: 371_B05 (antibody, V domains shown)
VH: B1 VH with D31S, G33S, N50G, G55S, G59S
VL: B1 VL with Y92D, N94T
notes: VH and VL only
In the case of B10, the optical density [1] is reported as 1.05 OD, the optical density [2] is reported as 1.24 OD and the optical density [3] is reported as 1.65 OD.

B11: 369_H11 (antibody, V domains shown)
VH: B1 VH with N50S
VL: B1 VL with T31S, V47L, L54R, A55H, E93D, N94L
notes: VH and VL only
With B11 the optical density [1] was 1.45 OD, the optical density [2] was 1.64 OD and the optical density [3] was 2.21 OD.

B12: 369_G09 (antibody, V domains shown)
VH: B1 VH with S30D, D31S, G33S
VL: B1 VL with L30V, V47L, L54R, E93D, N94L
notes: VH and VL only
B12 was tested, and the optical density [1] was 3.36 OD, the optical density [2] was 3.27 OD and the optical density [3] was 3.6 OD.

B13: 369_F04 (antibody, V domains shown)
VH: B1 VH with D31S, N50G, G59S
VL: B1 VL with L30I, T31S, L33V, V47L, L54R, A55H, E93D
notes: VH and VL only
B13 showed an optical density [1] of 1.95 OD, an optical density [2] of 2.17 OD and an optical density [3] of 3.46 OD.

B14: 371_B10 (antibody, V domains shown)
VH: B1 VH with S30D, D31S, G33S
VL: B1 VL with L30V, T31S, L33V, V47L, L54R, E93D, N94L
notes: VH and VL only
With B14 the optical density [1] was 3.31 OD, the optical density [2] was 3.36 OD and the optical density [3] was 3.44 OD.
